{
  "source": "FireProtDB (doi:10.1006/jmbi.1995.0325)",
  "parents": {"B1": {"name": "Subtilisin inhibitor, P01006 (parent)", "chain": "MRNTGAGPSPSVSRPPPSAAPLSGAALAAPGDAPSALYAPSALVLTVGKGVSATTAAPERAVTLTCAPGPSGTHPAAGSACADLAAVGGDLNALTRGEDVMCPMVYDPVLLTVDGVWQGKRVSYERVFSNECEMNAHGSSVFAF"}},
  "variants_of": "B1",
  "settings": "Streptomyces albogriseolus, Thermal, DSC, reversible: yes, structure 3SSI, whole UniProt chain shown; for ddG of mutation (higher = less stable) / unfolding free energy: 53.36 °C",
  "data": [
    {"variant": "MRNTGAGPSPSVSRPPPSAAPLSGAALAAPGDAPSALYAPSALVLTVGKGVSATTAAPERAVTLTCAPGPSGTHPAAGSACADLAAVGGDLNALTRGEDVMCPEVYDPVLLTVDGVWQGKRVSYERVFSNECEMNAHGSSVFAF", "note": "[M104E]", "values": [
      {"measurement": "ddG of mutation (higher = less stable)", "setting": "pH 3.2, glycine 25 mM", "result": -0.35, "unit": "kcal/mol"},
      {"measurement": "unfolding free energy", "setting": "pH 3.2, glycine 25 mM", "result": 5.9, "unit": "kcal/mol"},
      {"measurement": "Tm", "setting": "pH 3.2, glycine 25 mM", "result": 54.3, "unit": "°C"},
      {"measurement": "change of melting temperature, mutant - wild type (higher = more stable)", "setting": "pH 3.2, glycine 25 mM", "result": 0.98, "unit": "°C"},
      {"measurement": "unfolding enthalpy (calorimetric)", "setting": "pH 3.2, glycine 25 mM", "result": 103, "unit": "kcal/mol"},
      {"measurement": "ddG of mutation (higher = less stable)", "setting": "pH 7, phosphate 25 mM", "result": -1.05, "unit": "kcal/mol"},
      {"measurement": "unfolding free energy", "setting": "pH 7, phosphate 25 mM", "result": 7.08, "unit": "kcal/mol"},
      {"measurement": "Tm", "setting": "pH 7, phosphate 25 mM", "result": 84.2, "unit": "°C"},
      {"measurement": "change of melting temperature, mutant - wild type (higher = more stable)", "setting": "pH 7, phosphate 25 mM", "result": 1.99, "unit": "°C"},
      {"measurement": "unfolding enthalpy (calorimetric)", "setting": "pH 7, phosphate 25 mM", "result": 185, "unit": "kcal/mol"}
    ]},
    {"variant": "MRNTGAGPSPSVSRPPPSAAPLSGAALAAPGDAPSALYAPSALVLTVGKGVSATTAAPERAVTLTCAPGPSGTHPAAGSACADLAAVGGDLNALTRGEDVMCPAVYDPVLLTVDGVWQGKRVSYERVFSNECEMNAHGSSVFAF", "note": "[M104A]", "values": [
      {"measurement": "ddG of mutation (higher = less stable)", "setting": "pH 3.2, glycine 25 mM", "result": -0.54, "unit": "kcal/mol"},
      {"measurement": "unfolding free energy", "setting": "pH 3.2, glycine 25 mM", "result": 6.09, "unit": "kcal/mol"},
      {"measurement": "Tm", "setting": "pH 3.2, glycine 25 mM", "result": 55, "unit": "°C"},
      {"measurement": "change of melting temperature, mutant - wild type (higher = more stable)", "setting": "pH 3.2, glycine 25 mM", "result": 1.66, "unit": "°C"},
      {"measurement": "unfolding enthalpy (calorimetric)", "setting": "pH 3.2, glycine 25 mM", "result": 101, "unit": "kcal/mol"},
      {"measurement": "ddG of mutation (higher = less stable)", "setting": "pH 7, phosphate 25 mM", "result": -0.55, "unit": "kcal/mol"},
      {"measurement": "unfolding free energy", "setting": "pH 7, phosphate 25 mM", "result": 6.58, "unit": "kcal/mol"},
      {"measurement": "Tm", "setting": "pH 7, phosphate 25 mM", "result": 83.4, "unit": "°C"},
      {"measurement": "change of melting temperature, mutant - wild type (higher = more stable)", "setting": "pH 7, phosphate 25 mM", "result": 1.16, "unit": "°C"},
      {"measurement": "unfolding enthalpy (calorimetric)", "setting": "pH 7, phosphate 25 mM", "result": 183, "unit": "kcal/mol"},
      {"measurement": "ddG of mutation (higher = less stable)", "setting": "pH 9.5, glycine 25 mM", "result": -0.13, "unit": "kcal/mol"},
      {"measurement": "unfolding free energy", "setting": "pH 9.5, glycine 25 mM", "result": 6.17, "unit": "kcal/mol"},
      {"measurement": "Tm", "setting": "pH 9.5, glycine 25 mM", "result": 80.9, "unit": "°C"},
      {"measurement": "change of melting temperature, mutant - wild type (higher = more stable)", "setting": "pH 9.5, glycine 25 mM", "result": 0.18, "unit": "°C"},
      {"measurement": "unfolding enthalpy (calorimetric)", "setting": "pH 9.5, glycine 25 mM", "result": 178, "unit": "kcal/mol"}
    ]},
    {"variant": "MRNTGAGPSPSVSRPPPSAAPLSGAALAAPGDAPSALYAPSALVLTVGKGVSATTAAPERAVTLTCAPGPSGTHPAAGSACADLAAVGGDLNALTRGEDVMCPLVYDPVLLTVDGVWQGKRVSYERVFSNECEMNAHGSSVFAF", "note": "[M104L]", "values": [
      {"measurement": "ddG of mutation (higher = less stable)", "setting": "pH 3.2, glycine 25 mM", "result": 0.13, "unit": "kcal/mol"},
      {"measurement": "unfolding free energy", "setting": "pH 3.2, glycine 25 mM", "result": 5.42, "unit": "kcal/mol"},
      {"measurement": "Tm", "setting": "pH 3.2, glycine 25 mM", "result": 52.9, "unit": "°C"},
      {"measurement": "change of melting temperature, mutant - wild type (higher = more stable)", "setting": "pH 3.2, glycine 25 mM", "result": -0.43, "unit": "°C"},
      {"measurement": "unfolding enthalpy (calorimetric)", "setting": "pH 3.2, glycine 25 mM", "result": 108, "unit": "kcal/mol"},
      {"measurement": "ddG of mutation (higher = less stable)", "setting": "pH 7, phosphate 25 mM", "result": 0.25, "unit": "kcal/mol"},
      {"measurement": "unfolding free energy", "setting": "pH 7, phosphate 25 mM", "result": 5.78, "unit": "kcal/mol"},
      {"measurement": "Tm", "setting": "pH 7, phosphate 25 mM", "result": 81.8, "unit": "°C"},
      {"measurement": "change of melting temperature, mutant - wild type (higher = more stable)", "setting": "pH 7, phosphate 25 mM", "result": -0.46, "unit": "°C"},
      {"measurement": "unfolding enthalpy (calorimetric)", "setting": "pH 7, phosphate 25 mM", "result": 193, "unit": "kcal/mol"},
      {"measurement": "ddG of mutation (higher = less stable)", "setting": "pH 9.5, glycine 25 mM", "result": 0.55, "unit": "kcal/mol"},
      {"measurement": "unfolding free energy", "setting": "pH 9.5, glycine 25 mM", "result": 5.49, "unit": "kcal/mol"}
    ]},
    {"variant": "MRNTGAGPSPSVSRPPPSAAPLSGAALAAPGDAPSALYAPSALVLTVGKGVSATTAAPERAVTLTCAPGPSGTHPAAGSACADLAAVGGDLNALTRGEDVMCPIVYDPVLLTVDGVWQGKRVSYERVFSNECEMNAHGSSVFAF", "note": "[M104I]", "values": [
      {"measurement": "ddG of mutation (higher = less stable)", "setting": "pH 3.2, glycine 25 mM", "result": 0.73, "unit": "kcal/mol"},
      {"measurement": "unfolding free energy", "setting": "pH 3.2, glycine 25 mM", "result": 4.82, "unit": "kcal/mol"},
      {"measurement": "ddG of mutation (higher = less stable)", "setting": "pH 7, phosphate 25 mM", "result": 0.94, "unit": "kcal/mol"},
      {"measurement": "unfolding free energy", "setting": "pH 7, phosphate 25 mM", "result": 5.09, "unit": "kcal/mol"},
      {"measurement": "Tm", "setting": "pH 7, phosphate 25 mM", "result": 80.4, "unit": "°C"},
      {"measurement": "change of melting temperature, mutant - wild type (higher = more stable)", "setting": "pH 7, phosphate 25 mM", "result": -1.78, "unit": "°C"},
      {"measurement": "unfolding enthalpy (calorimetric)", "setting": "pH 7, phosphate 25 mM", "result": 193, "unit": "kcal/mol"},
      {"measurement": "Tm", "setting": "pH 9.5, glycine 25 mM", "result": 78.3, "unit": "°C"},
      {"measurement": "change of melting temperature, mutant - wild type (higher = more stable)", "setting": "pH 9.5, glycine 25 mM", "result": -2.42, "unit": "°C"},
      {"measurement": "unfolding enthalpy (calorimetric)", "setting": "pH 9.5, glycine 25 mM", "result": 189, "unit": "kcal/mol"}
    ]}
  ]
}
